Drawing on the supplement of paper PMC6755084, this text covers fraction ligated for 40 variants.

B1: minF1; the commonest letter at each place (parent)
chain: GAGACCGCAACTGAAAAGTTGTTATCAGAAATGGATGGGTTGAATTTCTGCACGTAGAAGCAAAAGGC

Variants of B1 are the subject of this series. The experiment in a line: fraction ligated after 30 min (ligated reads / total reads); higher = more ligase activity. The conditions noted are these: with F1*subA RNA substrate (template-directed ligation), 42 °C. The method in brief: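 Ligated and unligated RNAs from a pool of minimized ligase ribozyme variants were separated on gels, reverse transcribed with barcoded primers and sequenced on a MiSeq. Core bases needed quality ≥30 to pass the filter. Each variant's fraction ligated was then taken as ligated reads over total reads.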
For the variant GAGACCGCAACTGAAAAGTTGTTATCAGAAATGGAAGGGTTGAATTTCTGCACGTAGAAGCAAAAGGC [T36A], the fraction ligated amounted to 0.0309.

In the case of GAGACCGCAACTGAAAAGTTGTTATCAGAAATGGATAGGTTGATTTTCTGCACGTAGAAGCAAAAGGC [G37A A44T], the fraction ligated was found to be 0.00574.

In the case of GAGACCGCAACTGAAAAGTTGTTATCAGAAATGGATAGGTTGAGTTTCTGCACGTAGAAGCAAAAGGC [G37A A44G], the fraction ligated was 0.00429.

On to GAGACCGCAACTGAAAAGTTGTTATCAGAAATGGATAGGTTGACTTTCTGCACGTAGAAGCAAAAGGC [G37A A44C], for which the fraction ligated worked out at 0.00309.

In the case of GAGACCGCAACTGAAAAGTTGTTATCAGAAATGGTTGGGTTGGATTTCTGCACGTAGAAGCAAAAGGC [A35T A43G], the fraction ligated stood at 0.0022.

On to GAGACCGCAACTGAAAAGTTGTTATCAGAAATGGTTGGGTTGTATTTCTGCACGTAGAAGCAAAAGGC [A35T A43T], for which the fraction ligated worked out at 0.00405.

As to GAGACCGCAACTGAAAAGTTGTTATCAGAAATGGTTGGGTTGCATTTCTGCACGTAGAAGCAAAAGGC [A35T A43C], the fraction ligated is 0.00462.

With GAGACCGCAACTGAAAAGTTGTTATCAGAAATGGACGGGTTAAATTTCTGCACGTAGAAGCAAAAGGC [T36C G42A], the fraction ligated is 0.00494.

Regarding GAGACCGCAACTGAAAAGTTGTTATCAGAAATGGACGGGTTCAATTTCTGCACGTAGAAGCAAAAGGC [T36C G42C], the fraction ligated was 0.00306.

GAGACCGCAACTGAAAAGTTGTTATCAGAAATGGACGGGTTTAATTTCTGCACGTAGAAGCAAAAGGC [T36C G42T]: the fraction ligated was 0.00209.

Turning to GAGACCGCAACTGAAAAGTTGTTATCAGAAATGGACGGGTTGGATTTCTGCACGTAGAAGCAAAAGGC [T36C A43G], the fraction ligated was determined as 0.00496.

GAGACCGCAACTGAAAAGTTGTTATCAGAAATGGACGGGTTGCATTTCTGCACGTAGAAGCAAAAGGC [T36C A43C]: the fraction ligated was 0.00423.

Regarding GAGACCGCAACTGAAAAGTTGTTATCAGAAATGGACGGGTTGTATTTCTGCACGTAGAAGCAAAAGGC [T36C A43T], the fraction ligated was 0.00367.

For GAGACCGCAACTGAAAAGTTGTTATCAGAAATGGATAGGTTAAATTTCTGCACGTAGAAGCAAAAGGC [G37A G42A], the fraction ligated worked out at 0.00332.

In the case of GAGACCGCAACTGAAAAGTTGTTATCAGAAATGGATAGGTTCAATTTCTGCACGTAGAAGCAAAAGGC [G37A G42C], the fraction ligated amounted to 0.00225.

For GAGACCGCAACTGAAAAGTTGTTATCAGAAATGGATAGGTTTAATTTCTGCACGTAGAAGCAAAAGGC [G37A G42T], the fraction ligated came to 0.00089.

For GAGACCGCAACTGAAAAGTTGTTATCAGAAATGGAACGGTTGAATTTCTGCACGTAGAAGCAAAAGGC [T36A G37C], the fraction ligated was 0.00357.

Turning to GAGACCGCAACTGAAAAGTTGTTATCAGAAATGGAAAGGTTGAATTTCTGCACGTAGAAGCAAAAGGC [T36A G37A], the fraction ligated turned out to be 0.00486.

Regarding GAGACCGCAACTGAAAAGTTGTTATCAGAAATGGAATGGTTGAATTTCTGCACGTAGAAGCAAAAGGC [T36A G37T], the fraction ligated amounted to 0.0153.

For GAGACCGCAACTGAAAAGTTGTTATCAGAAATGGGAGGGTTGAATTTCTGCACGTAGAAGCAAAAGGC [A35G T36A], the fraction ligated worked out at 0.00856.

Turning to GAGACCGCAACTGAAAAGTTGTTATCAGAAATGGGGGGGTTGAATTTCTGCACGTAGAAGCAAAAGGC [A35G T36G], the fraction ligated was found to be 0.00747.

Turning to GAGACCGCAACTGAAAAGTTGTTATCAGAAATGGGCGGGTTGAATTTCTGCACGTAGAAGCAAAAGGC [A35G T36C], the fraction ligated amounted to 0.00252.

Consider GAGACCGCAACTGAAAAGTTGTTATCAGAAATGGAGAGGTTGAATTTCTGCACGTAGAAGCAAAAGGC [T36G G37A], for which the fraction ligated was 0.00776.

With GAGACCGCAACTGAAAAGTTGTTATCAGAAATGGAGTGGTTGAATTTCTGCACGTAGAAGCAAAAGGC [T36G G37T], the fraction ligated came out at 0.00976.

Turning to GAGACCGCAACTGAAAAGTTGTTATCAGAAATGGAGCGGTTGAATTTCTGCACGTAGAAGCAAAAGGC [T36G G37C], the fraction ligated was determined as 0.0044.

On to GAGACCGCAACTGAAAAGTTGTTATCAGAAATGGAAGGGTTTAATTTCTGCACGTAGAAGCAAAAGGC [T36A G42T], for which the fraction ligated was 0.00416.

On to GAGACCGCAACTGAAAAGTTGTTATCAGAAATGGAAGGGTTAAATTTCTGCACGTAGAAGCAAAAGGC [T36A G42A], for which the fraction ligated is 0.00342.

As to GAGACCGCAACTGAAAAGTTGTTATCAGAAATGGAAGGGTTCAATTTCTGCACGTAGAAGCAAAAGGC [T36A G42C], the fraction ligated was 0.0064.

Regarding GAGACCGCAACTGAAAAGTTGTTATCAGAAATGGAAGGGTTGAGTTTCTGCACGTAGAAGCAAAAGGC [T36A A44G], the fraction ligated was 0.00875.

Take GAGACCGCAACTGAAAAGTTGTTATCAGAAATGGAAGGGTTGATTTTCTGCACGTAGAAGCAAAAGGC [T36A A44T]: the fraction ligated was determined as 0.012.

GAGACCGCAACTGAAAAGTTGTTATCAGAAATGGAAGGGTTGACTTTCTGCACGTAGAAGCAAAAGGC [T36A A44C]: the fraction ligated was 0.00684.

Regarding GAGACCGCAACTGAAAAGTTGTTATCAGAAATGGATAGGTTGAATTTCTGCACGTAGAAGCAAAAGGC [G37A], the fraction ligated amounted to 0.00659.

In the case of GAGACCGCAACTGAAAAGTTGTTATCAGAAATGGATCGGTTGAATTTCTGCACGTAGAAGCAAAAGGC [G37C], the fraction ligated was determined as 0.00417.

GAGACCGCAACTGAAAAGTTGTTATCAGAAATGGAGGGGTTGAGTTTCTGCACGTAGAAGCAAAAGGC [T36G A44G]: the fraction ligated turned out to be 0.00979.

As to GAGACCGCAACTGAAAAGTTGTTATCAGAAATGGAGGGGTTGATTTTCTGCACGTAGAAGCAAAAGGC [T36G A44T], the fraction ligated worked out at 0.0156.

For GAGACCGCAACTGAAAAGTTGTTATCAGAAATGGAGGGGTTGACTTTCTGCACGTAGAAGCAAAAGGC [T36G A44C], the fraction ligated was 0.00345.

In the case of GAGACCGCAACTGAAAAGTTGTTATCAGAAATGGTTGGGTTGAATTTCTGCACGTAGAAGCAAAAGGC [A35T], the fraction ligated is 0.037.

As to GAGACCGCAACTGAAAAGTTGTTATCAGAAATGGATAGGTTGTATTTCTGCACGTAGAAGCAAAAGGC [G37A A43T], the fraction ligated was found to be 0.00461.

Take GAGACCGCAACTGAAAAGTTGTTATCAGAAATGGATAGGTTGCATTTCTGCACGTAGAAGCAAAAGGC [G37A A43C]: the fraction ligated turned out to be 0.00236.

For the variant GAGACCGCAACTGAAAAGTTGTTATCAGAAATGGATAGGTTGGATTTCTGCACGTAGAAGCAAAAGGC [G37A A43G], the fraction ligated was found to be 0.00388.
